Here are results for one molecule from patent US20120324606A1.

The target in assay [1] is BBMV proteins (receptor binding sites) in brush border membrane vesicles from fall armyworm (FAW; Spodoptera frugiperda) larval midgut. Put plainly: homologous competition: unlabeled Cry1Be against 0.5 nM 125I Cry1Be on FAW BBMVs.
The target of assay [2] is BBMV proteins (receptor binding sites) in brush border membrane vesicles from European corn borer (ECB; Ostrinia nubilalis) larval midgut. Put plainly: heterologous competition: unlabeled Cry1Be against 0.5 nM 125I Cry1Ab on ECB BBMVs.
The target in assay [3] is BBMV proteins (receptor binding sites) in brush border membrane vesicles from fall armyworm (FAW; Spodoptera frugiperda) larval midgut. In words: heterologous competition: unlabeled Cry1Be against 0.5 nM 125I Cry1Ab on FAW BBMVs.
Assay [4] has as its target BBMV proteins (receptor binding sites) in brush border membrane vesicles from European corn borer (ECB; Ostrinia nubilalis) larval midgut. Put plainly: heterologous competition: unlabeled Cry1Be against 0.5 nM 125I Cry1Ab on ECB BBMVs; reference is homologous Cry1Ab.
Assay [5] concerns the target BBMV proteins (receptor binding sites) in brush border membrane vesicles from fall armyworm (FAW; Spodoptera frugiperda) larval midgut. Put plainly: heterologous competition: unlabeled Cry1Be against 0.5 nM 125I Cry1Ab on FAW BBMVs; reference is homologous Cry1Ab.

B1: Cry1Be insecticidal protein (purified truncated Cry toxin) (ligand)
chain: IEDSLCIAEGNNIDPFVSASTVQTGINIAGRILGVLGVPFAGQIASFYSFLVGELWPRGRDPWEIFLEHVEQLIRQQVTENTRDTALARLQGLGNSFRAYQQSLEDWLENRDDARTRSVLYTQYIALELDFLNAMPLFAIRNQEVPLLMVYAQAANLHLLLLRDASLFGSEFGLTSQEIQRYYERQVEKTREYSDYCARWYNTGLNNLRGTNAESWLRYNQFRRDLTLGVLDLVALFPSYDTRVYPMNTSAQLTREIYTDPIGRTNAPSGFASTNWFNNNAPSFSAIEAAVIRPPHLLDFPEQLTIFSVLSRWSNTQYMNYWVGHRLESRTIRGSLSTSTHGNTNTSINPVTLQFTSRDVYRTESFAGINILLTTPVNGVPWARFNWRNPLNSLRGSLLYTIGYTGVGTQLFDSETELPPETTERPNYESYSHRLSNIRLISGNTLRAPVYSWTHRSADRTNTISSDSITQIPLVKSFNLNSGTSVVSGPGFTGGDIIRTNVNGSVLSMGLNFNNTSLQRYRVRVRYAASQTMVLRVTVGGSTTFDQGFPSTMSANESLTSQSFRFAEFPVGISASGSQTAGISISNNAGRQTFHFDKIEFIPITAT
modifications: ^125I iodination (Iodo-Beads) in the radiolabeled form only; sites not stated
Consider B1, for which the concentration for half-maximal inhibition (IC50) (as a rule, the concentration that gives 50% inhibition) came to 2 nM in assay [1], 40 nM in assay [2] and 300 nM in assay [3]. In assay [4], this molecule yielded a fold higher concentration for 50% displacement, against Cry1Ab of 80 fold. The same molecule returned a fold greater concentration for 50% displacement, against Cry1Ab in assay [5] of 1000 fold.
